Assay [1] deals with T1, Fc-tagged ECD of ErbB2 (ErbB family member, R&D 1129-ER) (human, UniProt P04626 23-652).
T1 construct: extracellular domain; not shown: Fc tag of the bought protein
The experiment in a line: single point Fab-phage ELISA on immobilized protein. A general note: An ELISA detects its analyte on a solid surface through an enzyme-linked reagent.

Assay [2] deals with T2, Fc-tagged ECD of ErbB3 (R&D 348-RB) (human, UniProt P21860 20-643).
T2 construct: extracellular domain; also called ErbB family member; not shown: Fc tag of the bought protein
The assay is described as above.

Assay [3] deals with T3, Fc-tagged ECD of ErbB4 (ErbB family member, R&D 1131-ER) (human, UniProt Q15303 26-651).
T3 construct: extracellular domain; not shown: Fc tag of the bought protein
T3 sequence (looked up): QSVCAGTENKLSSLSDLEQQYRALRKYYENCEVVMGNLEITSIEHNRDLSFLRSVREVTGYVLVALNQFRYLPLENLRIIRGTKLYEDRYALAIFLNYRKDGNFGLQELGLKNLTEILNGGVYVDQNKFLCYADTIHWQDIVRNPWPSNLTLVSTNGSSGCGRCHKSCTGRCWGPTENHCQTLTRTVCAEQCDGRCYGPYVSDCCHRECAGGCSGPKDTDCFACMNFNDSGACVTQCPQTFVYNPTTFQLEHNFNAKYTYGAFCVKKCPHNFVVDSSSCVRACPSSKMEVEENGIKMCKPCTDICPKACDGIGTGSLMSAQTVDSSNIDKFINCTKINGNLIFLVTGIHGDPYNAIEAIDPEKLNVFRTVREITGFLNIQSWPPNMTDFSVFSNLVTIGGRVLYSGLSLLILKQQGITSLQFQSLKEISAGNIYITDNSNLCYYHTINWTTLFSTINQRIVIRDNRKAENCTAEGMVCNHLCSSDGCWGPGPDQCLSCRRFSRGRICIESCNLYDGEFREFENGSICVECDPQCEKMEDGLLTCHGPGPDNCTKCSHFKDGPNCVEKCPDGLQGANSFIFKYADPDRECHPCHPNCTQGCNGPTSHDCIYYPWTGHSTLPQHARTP
The description is as above.

Assay [4] concerns the target T4, cell-surface EGFR (endogenous on A431, MDA-MB-231 and other cancer cell lines); pBABE-EGFR transfected 293T … (UniProt P00533 25-1210, limits assumed).
T4 construct: whole, on cells; Untagged EGFR on cells; also called endogenous cell-surface EGFR; EGFR1
The experiment in a line: flow cytometry on A431 cells, 800CW-labelled fragment. A general note: A flow cytometer gives signals particle by particle.

Assay [5] concerns the target T5, Fc-tagged extracellular domain (ECD) of the recombinant human EGFR (rhEGFR) (human, UniProt P00533 25-645).
T5 construct: extracellular domain; also called rhEGFR-ECD; rhEGFR-ECD-Fc; not shown: Fc tag of the bought protein (R&D 344-ER)
As to the kind of experiment: apparent affinity by multi-point competitive ELISA using purified EGFR, Fab-phage; Fab-phage, first account of the DL06 selection.

B1: Fab DL06 (Fab)
heavy: EVQLVESGGGLVQPGGSLRLSCAASGFNISSSSIHWVRQAPGKGLEWVAYISSYYSSTYYADSVKGRFTISADTSKNTAYLQMNSLRAEDTAVYYCARTYCPPLMLYNPTTYQMDVNPEGKYSFGATCGWAMDYWGQGTLVTVSSASTKGPSVFPLAPSSKSTSGGTAALGCLVKDYFPEPVTVSWNSGALTSGVHTFPAVLQSSGLYSLSSVVTVPSSSLGTQTYICNVNHKPSNTKVDKKVEPKSCDKTHT
light: DIQMTQSPSSLSASVGDRVTITCRASQSVSSAVAWYQQKPGKAPKLLIYSASSLYSGVPSRFSGSRSGTDFTLTISSLQPEDFATYYCQQWSYYPITFGQGTKVEIKRTVAAPSVFIFPPSDSQLKSGTASVVCLLNNFYPREAKVQWKVDNALQSGNSQESVTEQDSKDSTYSLSSTLTLSKADYEKHKVYACEVTHQGLSSPVTKSFNRGECGGSDYKDDDDK
notes: Fab with the EGFR dimerization loop grafted in CDR-H3; the light chain entry ends in a FLAG tag; also called DL06 Fab; parent clone DL06
B1: the results for the binding result in assay [1], in assay [2] and in assay [3] were “no binding”, “binds” and “no binding”, respectively. The values for the Kd in assay [4] and in assay [5] were greater than 1000 nM and greater than 100 nM, respectively.
